For orientation: Kd means the concentration at which binding is half-saturated.

This passage reports Kd results from publication PMC11793764, “A universal method for the purification of C2H2 zinc finger arrays”.

In the data set the target is CCR5L (designed (synthetic)). The experiment in a line: MST; 100 uM ZnCl2; MST: 20 mM Tris-HCl pH 7.5, 200 mM NaCl, 0.01% Tween-20, 100 uM ZnCl2, 0.1 mM TCEP; TZAP arrays: 20 mM Tris-HCl pH 7.0, 50 mM NaCl, 0.1% Tween-20, 100 uM ZnCl2, 0.1 mM TCEP; temperature not stated. The conditions noted are these: protein: recombinant; tags: His-SUMO cleaved by Ulp1; Cy5-maleimide on terminal Cys; hairpin.
Sequence of CCR5L (designed (synthetic)) (chain, as listed by the source): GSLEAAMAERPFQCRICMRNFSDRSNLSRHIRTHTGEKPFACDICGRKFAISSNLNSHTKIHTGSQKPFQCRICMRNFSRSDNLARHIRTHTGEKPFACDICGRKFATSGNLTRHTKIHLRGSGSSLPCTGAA

B1: ccr5l-wt (structured_DNA)
DNA: GGCTTCCGCTGTCATCCTCATCAGGTTTTCCTGATGAGGATGACAGCGGAAGCC
In the case of B1, the dissociation constant (Kd) was 5.7 nM.
